Assay results taken from publication PMC4192486, “The Importance of a Gatekeeper Residue on the Aggregation of Transthyretin” (The Journal of Biological Chemistry, 2014).

Target: the molecule itself
Test: SEC; Superdex 75 on HPLC, absorbance at 280 nm; 100 μM peptide in buffer pH 5.0 (100 mM MES, 100 mM KCl) at 25 °C, aliquots at 0, 5, 10, 15 and 30 min of the aggregation reaction; soluble WT peptide at the same concentration as control

B1: TTR 26–57 peptide bearing the K35L substitution (peptide)
peptide: not shown
notes: transthyretin (TTR), human, residues 26-57 with K35L; also called K35L peptide; 26–57 K35L; source: synthetic peptide; bought: Genemed Synthesis
stoichiometry N: 10 to 15 units
